In the nanobody polyreactivity screen of Harvey et al. (2022):

assay: yeast display, Sf9 membrane polyspecificity reagent, FACS + sequencing; frameworks hold sequencing errors
Procedure, shortened: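 Galactose induction of a Saccharomyces cerevisiae BJ5465 synthetic nanobody display library ran 36–48 hours. The cells were then stained for 1 hour at 4 °C with 10% biotinylated, detergent-solubilized Sf9 membrane reagent, pulled down on streptavidin microbeads and FACS-sorted into low and high (top ~1%) gates on expression and reagent-binding fluorescence. Labels for polyreactivity follow the gate of origin.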

| Sequence | polyreactivity (PSR sort gate) |
| --- | --- |
| QVQLVESGGGLVQAGGSLRLSCAASGRTFKRYAMGWYRQAPGNERELVAAIRRGGITNYADSVKGRFTISRDNAKNTVYLQMNSLKPEDTAVYYCAKDGVTYPYSYEYDYWGLGTQVTVSS | low polyreactivity |
| QVQLVESGGGLVQAGGSLRLSCAASGRTFKVYAMGWYRQAPGKERELVASINRGSSTYADSVKGRFTISRDNAKNTVYLQMNSLKPEDTAVYYCAARWWRQSRYYYWGQGTQVTVSS | high polyreactivity |
| QVQLVESGGGLVQAGGSLRLSCAASGRTFKYKAMGWYRQAPGKERELVDAISSDDSTNYADSVKGRFTISRDKAQNTVYLQMNSLKPEDTAVYYCAARYGYSKWPDRVQAYKHDYWGQGTQVTVSS | low polyreactivity |
| QVQLVESGGGLVQAGGSLRLSCAASGRTFKYNAIGWYRQAPGKERELVAVISRSTGRTYYADSVKGRFTISRDNAKNTVYLQMNSLKPEDTAVYYCNRVSRQYYYQRGFEYDYWGQGTQVTVSS | high polyreactivity |
| QVQLVESGGGLVQAGGSLRLSCAASGRTFKYNAMGWYRQAPGKERELVAAITSSGGRTYYADSVKGRFTISRDNAKNTVYLQMNSLKPEDTAVYYCAARGYPSDYKYEYNYWGQGTQVTVSS | high polyreactivity |
| QVQLVESGGGLVQAGGSLRLSCAASGRTFKYNAMGWYRQAPGKRKELVAAISSGGSTYYADSVKGRFTISRDNAKNTVYLQMNSLKPEDTAVYYCAVRNTKSYWFGYWGQGTQVTVSS | high polyreactivity |
| QVQLVESGGGLVQAGGSLRLSCAASGRTFKYYALGWYRQAPGKERELVAAISNGGRTNYADSVKGRFTISRDNAKNTVYLQMNSLKPEDTAFYYCAKRTFYFSDYDYWGQGTQVTVSS | high polyreactivity |
| QVQLVESGGGLVQAGGSLRLSCAASGRTFKYYALGWYRQAPGKERELVAAISTRGGRTYADSVKGRFTISRDNAKNTVYLQMNSLKPEDTAVYYCARDSNVGHHGFDYWGQGTQVTVSS | low polyreactivity |
| QVQLVESGGGLVQAGGSLRLSCAASGRTFKYYAMGWYRQAPGKERELVAAISRRGGRTYYADSVKGRFTISRDNAKNTVYLQMNSLKPEDTAVYYCAAVFETGAGGFYYTLQYDSWGQGTQVTVSS | high polyreactivity |
| QVQLVESGGGLVQAGGSLRLSCAASGRTFKYYAMGWYRQAPGKERELVAAISRSGGTTYYADSVKGRFTISRDNAKNTVYLQMNSLKPEDTAVYYCAARCATRSRYDYWGQGTQVTVSS | high polyreactivity |
| QVQLVESGGGLVQAGGSLRLSCAASGRTFKYYAMGWYRQAPGKERELVAAISSGSSTYYADSVKGRFTISRDNAKNTVYLQMNSLKPEDTAVYYCNAVYKLSYLLSGTSEYYTYDYWGQGTQVTVSS | high polyreactivity |
| QVQLVESGGGLVQAGGSLRLSCAASGRTFKYYAMGWYRQAPGKERELVAAISYNGGSTFYADSVKGRFTFSRDNAKNTVYLQMNSLKPEDTAVYYCAAGPRGTGKYYWGQGTQVTVSS | high polyreactivity |
| QVQLVESGGGLVQAGGSLRLSCAASGRTFKYYAMGWYRQAPGKERELVASISNGGNTNYADSVKGRFTISRDNAKNTVYLQMNSLKPEDTAVYYCAAGYVVATRYDYWGQGTQVTVSS | high polyreactivity |
| QVQLVESGGGLVQAGGSLRLSCAASGRTFKYYAMGWYRQAPGKERELVASITRGSSTNYADSVKGRFTISRDNAKNTVYLQMNSLKPEDTAVYYCATGPGRALPRPTSAYYYWGQGTQVTVSS | high polyreactivity |
| QVQLVESGGGLVQAGGSLRLSCAASGRTFKYYTMGWYRQAPGKERELVAAITSDGSTNYADSVKGRFTISRDNAKNTVYLQMNSLKPEDTAVYYCAAEIRWVFLSYEYWGQGTQVTVSS | high polyreactivity |
| QVQLVESGGGLVQAGGSLRLSCAASGRTFLAYAMGWYRQAPGKERELVAAISKSGGRTYYADSVKGRFTISRDNAKNTVYLQMNSLKPEDTAVYYCAADKQAYVTDDYWGQGTQVTVSS | high polyreactivity |
| QVQLVESGGGLVQAGGSLRLSCAASGRTFLGYAMGWYRQAPGKERELVAAITSGTRTYADSVKGRFTISRDNAKYTVYLQMNSLKPEDTAVYYCAALRWQYRLYSYSFRSGRFDYWGQGTQVTVSS | low polyreactivity |
| QVQLVESGGGLVQAGGSLRLSCAASGRTFLGYAMGWYRQAPGKERELVAAITWRGGITYYADSVKGRFTISRDNAKNTVYLQMNSLKPEDTAVYYCARDYGQYGWYRYGRTFDNWGQGTQVTVSS | high polyreactivity |
| QVQLVESGGGLVQAGGSLRLSCAASGRTFLHNAMGWYRQAPGKERELVAAISSRGGSTYYADSVKGRFTISRDNAKNTVYLQMNSLKPEDTAVYYCAAYIYGTYYYWGQGTQVTVSS | high polyreactivity |
| QVQLVESGGGLVQAGGSLRLSCAASGRTFLHYAMGWYRPAPGKERELVAAMSWSGGSTNYADSVKGRFTISRDNAKNTVYLQMNSLKPEDTAVYYCAADFYWVIYSTVEYGYWGQGTQVTVSS | low polyreactivity |

| Sequence | polyreactivity (PSR sort gate) |
| --- | --- |
| QVQLVESGGGLVQAGGSLRLSCAASGRTFLINAMGWYRQAPGKERELVAAITQSGGSTYYADSVKGRFTISRDNAKNTVYLQMNSLKPEDTAVYYCAADVPGVYPYDYWGQGTQVTVSS | low polyreactivity |
| QVQLVESGGGLVQAGGSLRLSCAASGRTFLIYAMGWYRQAPRKEREFVAAIRGRGGSTYYADSVKGRFTISRDNAKNTVYLQMNSLKPEDTAVYYCAATFPGRSFRIRGYGYDYWGQGTQVTVSS | high polyreactivity |
| QVQLVESGGGLVQAGGSLRLSCAASGRTFLNYAMGWYRQAPGKEREFVAAITWRVGTTYYADSVKGRFTISRDNAKNTVYLQMNSLKPEDTAVYYCAARRSVGGYGYWGQGTQVTVSS | high polyreactivity |
| QVQLVESGGGLVQAGGSLRLSCAASGRTFLPNAMGWYRQAPGKDRELVAVITSGGSTNYADSVKGRFTISRDNAKNTVYLQMNSLKPEDTAVYYCAARRWSSSQGHWGKSAGYGYWGQGTQVTVSS | low polyreactivity |
| QVQLVESGGGLVQAGGSLRLSCAASGRTFLPNAMGWYRQAPGKERELVAVITSGGSTNYADSVKGRFTISRDNAKNTVYLQMKSLKPEDTAVYYCAARRWSSSQGHWGKSAGYGYWGQGTQVTVSS | low polyreactivity |
| QVQLVESGGGLVQAGGSLRLSCAASGRTFLPNAMGWYRQAPGKERELVAVITSGGSTNYADSVKGRFTISRDNAKNTVYLQMNSLKPEDTAVYYCAADWWRVEMEYWGQGTQVTVSS | low polyreactivity |
| QVQLVESGGGLVQAGGSLRLSCAASGRTFLPNAMGWYRQAPGKERELVAVITSGGSTNYADSVKGRFTISRDNAKNTVYLQMNSLKPEDTAVYYCAARRWSSSQGHWGKSAGYGYLGQGTQVTVSS | low polyreactivity |
| QVQLVESGGGLVQAGGSLRLSCAASGRTFLPNAMGWYRQAPGKERELVAVITSGGSTNYADSVKGRFTISRDNAKNTVYLQMNSLKPEDTAVYYCAARRWSSSQGHWGKSAGYGYWGQGTQVTVSS | low polyreactivity |
| QVQLVESGGGLVQAGGSLRLSCAASGRTFLPYAMGWYRQAPGKEWELVAAIDSSGGSTYYADSVKGRFTISRDNAKNTVYLQMNSLKPEDTAVYYCAADLYSSYYLYDSWGQGTQVTVSS | low polyreactivity |
| QVQLVESGGGLVQAGGSLRLSCAASGRTFLRNTMGWYRQAPGKERELVAAISRSGATTYYADSVKGRFTISRDNAKNTVYLQMNSLKPADTAVYYCAALGQGRTSATSFVDYEYWGQGTQVTVSS | high polyreactivity |
| QVQLVESGGGLVQAGGSLRLSCAASGRTFLRYAMGWYRQAPGKERELVAAISGSGGSTYYADSVKGRFTISRDNAKNTVYLQMNSLKPEDTAVYYCATRFWVSFKAREYWGQGTQVTVSS | high polyreactivity |
| QVQLVESGGGLVQAGGSLRLSCAASGRTFLSYAMGWSRQAPVTERELVATITRRGGSTYYADSVKGRFTISRDNAKNTVYLQMNSLKPEDTAVSYCAAYYRQYSYSEFGYWGQGTQVTVSS | high polyreactivity |
| QVQLVESGGGLVQAGGSLRLSCAASGRTFLSYMGWYRQAPGKERELVAISRYGTSTYYADSVKGRFTISRDNAKNTVYLQMNSLKPEDTAVFYCAAEVLRDGWWGYYYWGQGTQVTVSS | high polyreactivity |
| QVQLVESGGGLVQAGGSLRLSCAASGRTFLTNAMGWYRQAPGKERELVAAITSSGGNTYYADSVKGRFTISRDNAKNTVYLQMNSLKPEDTAVYYCAAPGYVWYGGRWVYRYYYWGQGTQVTVSS | high polyreactivity |
| QVQLVESGGGLVQAGGSLRLSCAASGRTFLTNTMGWYRQAPGKERELVAAISSGGSTKYADSVKGRFTISRDNAKNTVYLQMNSLKPEDTAVYYCAATGWRYGYKYYYWGQGTQVNVSS | high polyreactivity |
| QVQLVESGGGLVQAGGSLRLSCAASGRTFLVFAMGWYRQAPGKERELVAAITRDDNTNYADSVKGRFTISRDNAKNTVYLQMNSLKPEDTAVDYCAADALVYRLGNYYFIFDYWGQGTEVTVSS | low polyreactivity |
| QVQLVESGGGLVQAGGSLRLSCAASGRTFLVNAMGWYRQAPGKEREFVAAITSRSSGSTYYADSVTGRFTISRDKAKNTVYFQLNSQKPEDTAVYYCAARGHLRYESDYWGQGTQVTVSS | high polyreactivity |
| QVQLVESGGGLVQAGGSLRLSCAASGRTFLVNAMGWYRQAPGKERELVAAITANGGNTYYADSVKGRFTISRDNAKNTVYLQMNSLKPEDTAVYYCAKLSHRGQSTGVDYWGQGTQVTVSS | low polyreactivity |
| QVQLVESGGGLVQAGGSLRLSCAASGRTFLVYAMGWYRQAPGKERDLVAAITGSGTSTYYADSVKRRFTISRDNGKNTVYLQMNSLKAEDTAVYYCAAEVRLGTYGYDYDYWGQGTQVTVSS | high polyreactivity |
| QVQLVESGGGLVQAGGSLRLSCAASGRTFLVYAMGWYRQAPGKERELVAAISFSDGITYYADSVKGRFTISRDNAKNTVYIQMNSLKPEDTAVYYCATEILDYYYGSEYDYWGQGTQVTVSS | high polyreactivity |
